Results: patent US20250051443A1 (NATIONAL RESEARCH COUNCIL OF CANADA, published 2025)
Positions count from the first letter of the chain named.

B1: F282-2D5 (antibody, V domains shown)
VH: QVQLQQPGTELVKPGASVKLSCKASGYTFTSYWMHWVKQRPGQGLEWIGNINPSNGGTNYNENFKTKATLTVDKSSSTAYMQLSSLTSEDSAVYYCARDRSGQYYFDYWGQGTTLTVSS
VL: DIVMSQSPSSLAVSAGEKVTMSCKSSQSLLNSRTRKNYLAWYQQKPGQSPKLLIYWASTRESGVPDRFTGSGSGTDFTLTISSVQAEDLAVYYCIQSYHLRTFGGGTILEIK
notes: also called F282-2D5-2
B2: F332-7C5 (antibody, mouse IgG2a, V domains shown)
VH: QVQLQQPGAELGKPGTSVKLSCKASGYTFTSYWMHWVKQRPGQGLEWIGNINPSSGITNYNERFKNKATLTVDKSSTTAYMQLSILTSEDSAVYYCSRDISGQYYFNFWGQGTTLTVSS
VL: B1 VL with S71T, I95K, H99N, I108K
notes: also called F332-7C5-2; F332-7C5 (5E12, 10A8)
B3: F332-1C9 (antibody, mouse IgG2a, V domains shown)
VH: QVQLQQPGAELGKPGTSVNLSCKASGYTFTSYWMHWVKQRPGQGLDWIGNINPNSGTTNYNEKFKSKATLTVDKSSSTAYMQLSTLTSEDSAVYYCTRDISGQYYFDYWGQGTSLTVSS
VL: B1 VL with T80I, I95K, H99S, I108K
notes: Sister clones 1A10, 5H8, 8B11 share the same entries; also called F332-1C9-2; F332-1C9 (1A10, 5H8, 8B11)
B4: F332-3E9 (antibody, mouse IgG2a, V domains shown)
VH: QVQLQQPGAELGKPGTSVKLSCKASGYTFTSYWIHWLKQRPGQGLEWIGNINPNGGSINCNEKFTTKATLTIDKSSSTAYMQLSTLTSEDFAVYYCTRDTSGQYYFDYWGQGTTLTVSS
VL: B1 VL with V3M, I95T, I108K
notes: also called F332-3E9-2; F332-3E9 (12G4)
B5: F332-6D7 (antibody, mouse IgG2a, V domains shown)
VH: B3 VH
VL: B1 VL with I95K, H99S, T107S, I108K
notes: also called F332-6D7-2; F332-6D7 (7G4)
B6: F332-4D6 (antibody, mouse IgG2a, V domains shown)
VH: B4 VH with P7S, L37V, G55S, I58T, C60Y, T65K, T66R, I72A
VL: B1 VL with L52V, I95K, I108K
notes: also called F332-4D6-2; F322-4D6
B7: F332-5F2 (antibody, mouse IgG2b, V domains shown)
VH: B3 VH with N19K, D46E, S55G, T57D, T58S, Y108F, S118F
VL: B1 VL with V3L, K18Q, Y55F, E61K, D76Y, I95T, H99N, I108K
notes: also called F332-5F2-2; F332-5F2 (6G8, 13A3)
B8: F332-1E2 (antibody, mouse IgG2a, V domains shown)
VH: B4 VH with L37V, I48V, G55S, C60Y, T65K, T66N, I72V
VL: B1 VL with K18R, I108K
notes: Sister clone 8C5 shares the same entries; also called F332-1E2-2; F332-1E2 (8C5)

Target: T1, human CD3 (human, UniProt P07766 23-207; P09693 23-182; P04234 22-171)
T1 construct: whole, on cells; also called CD3 on Jurkat T cells; CD3 on primary human T cells
Assay: flow competition on Jurkat, 100 nM unlabeled mAb; competitor AF488-SP34.2 20 nM
Protocol: (§1) In order to evaluate whether anti-CD3 monoclonal antibodies bind to the same epitope region, flow cytometry competition experiments on Jurkat cells were performed.
(§2) To that effect, a fixed concentration of the indicated AF488-labeled mAb were incubated with 100 nM of unlabeled monoclonal antibodies to assess if their binding capacity was impaired in presence of unlabeled mAbs. […] The AF488-OKT3 mIgG2b was labeled in-house using AlexaFluor488 protein labelling kit (Invitrogen #A10235) following manufacturer's instruction. The free dye removal step was done using Zeba™ Spin Desalting Columns, 7K MWCO (Thermo Scientific #89890). The final product was analyzed by UPLC-SEC to ensure the integrity of the labeled mAb.

B1 and B2 are the same in “% residual fluorescence of labeled mAb” value: 7% for the first, 7% for the second.

First: B3
Second: B4
The “% residual fluorescence of labeled mAb” value of the first is higher: 12% for the first, 11% for the second.

Going from B5 to B6, the “% residual fluorescence of labeled mAb” value falls from 10% to 9%.

Going from B7 to B8, the “% residual fluorescence of labeled mAb” value falls from 9% to 6%.

Target: T1, human CD3
Assay: flow cytometry, hybridoma supernatant on CD3+ Jurkat cells
Protocol: Cells were stained with either negative control mouse IgG (Jackson Immunoresearch cat #115-000-003) or an anti-GFP 3E6 mAb supernatant or tested hybridoma supernatant. Specific binding was reflected by the increase in the mean fluorescent intensity of antibody binding to Jurkat T-cells (FIGS. 1A to 1F, grey histograms) compared to the Jurkat CD3 negative cell line J.RT3-T3.5 (FIGS. 1A to 1F, open histograms). AF488 labeled positive control mAb OKT3 was also analyzed.

First: B1
Second: B2
The MFI of the first is higher: 349 MFI for the first, 334 MFI for the second.

Going from B3 to B4, the MFI rises from 277 MFI to 297 MFI.

Going from B5 to B6, the MFI rises from 247 MFI to 398 MFI.

Going from B7 to B8, the MFI rises from 292 MFI to 319 MFI.

Target: T1, human CD3
Assay: cell-based or functional assay

First: B1
Second: B2
The “% max ref. OKT3 (dTomato activation)” value of the first is lower: 98% for the first, 102% for the second.

First: B3
Second: B4
The “% max ref. OKT3 (dTomato activation)” value of the first is higher: 94% for the first, 84% for the second.

Compared with B5, B6 is higher in “% max ref. OKT3 (dTomato activation)” value: 86% for the first, 87% for the second.

Going from B7 to B8, the “% max ref. OKT3 (dTomato activation)” value rises from 98% to 104%.

Compared with B1, B2 is 1.8-fold higher in “EC50 of dTomato induction (CD69 promoter), Jurkat-CD69-dTomato cells, 24 h” value (from here on “EC50 of dTomato induction”): 0.13 µg/mL for the first, 0.23 µg/mL for the second.

First: B3
Second: B4
The “EC50 of dTomato induction” value of the first is 1.8-fold higher: 0.2 µg/mL for the first, 0.11 µg/mL for the second.

B5 and B6 are within 1.5-fold of each other in “EC50 of dTomato induction” value: 0.25 µg/mL for the first, 0.18 µg/mL for the second.

B7 and B8 are within 1.5-fold of each other in “EC50 of dTomato induction” value: 0.19 µg/mL for the first, 0.16 µg/mL for the second.

Target: T1, human CD3
Assay: flow competition on Jurkat, 100 nM unlabeled mAb; competitor AF488-SK7 1.5 nM
Protocol: as §1, §2

First: B1
Second: B2
The “% residual fluorescence of labeled mAb” value of the first is higher: 42% for the first, 39% for the second.

B3 and B4 are the same in “% residual fluorescence of labeled mAb” value: 45% for the first, 45% for the second.

B5 and B6 are the same in “% residual fluorescence of labeled mAb” value: 44% for the first, 44% for the second.

First: B7
Second: B8
The “% residual fluorescence of labeled mAb” value of the first is higher: 49% for the first, 42% for the second.

Target: T1, human CD3
Assay: cell-based or functional assay
Remark: another data set of the same source

B1 and B2 are within 1.5-fold of each other in “IC50, indirect ADC surrogate growth inhibition (anti-mouse-DM1) on Jurkat cells” value: 0.075 nM for the first, 0.062 nM for the second.

B3 and B4 are within 1.5-fold of each other in “IC50, indirect ADC surrogate growth inhibition (anti-mouse-DM1) on Jurkat cells” value: 0.072 nM for the first, 0.05 nM for the second.

Going from B5 to B6, the “IC50, indirect ADC surrogate growth inhibition (anti-mouse-DM1) on Jurkat cells” value falls from 0.072 nM to 0.038 nM (1.9-fold).

First: B7
Second: B8
The “IC50, indirect ADC surrogate growth inhibition (anti-mouse-DM1) on Jurkat cells” value of the first is 5.6-fold higher: 0.173 nM for the first, 0.031 nM for the second.

First: B1
Second: B2
The “Span, indirect ADC surrogate growth inhibition on Jurkat cells” value of the first is higher: 97% for the first, 95% for the second.

B3 and B4 are the same in “Span, indirect ADC surrogate growth inhibition on Jurkat cells” value: 94% for the first, 94% for the second.

Going from B5 to B6, the “Span, indirect ADC surrogate growth inhibition on Jurkat cells” value falls from 96% to 92%.

B7 and B8 are the same in “Span, indirect ADC surrogate growth inhibition on Jurkat cells” value: 95% for the first, 95% for the second.

Target: T1, human CD3
Assay: flow competition on Jurkat, 100 nM unlabeled mAb; competitor AF488-UCHT1 5 nM
Protocol: as §1, §2

B1 and B2 are the same in “% residual fluorescence of labeled mAb” value: 64% for the first, 64% for the second.

B3 and B4 are the same in “% residual fluorescence of labeled mAb” value: 76% for the first, 76% for the second.

Compared with B5, B6 is higher in “% residual fluorescence of labeled mAb” value: 73% for the first, 76% for the second.

Compared with B7, B8 is lower in “% residual fluorescence of labeled mAb” value: 74% for the first, 69% for the second.

Target: T1, human CD3
Assay: apparent KD (KDapp), flow cytometry titration on purified primary human T cells
Protocol: The binding characteristics of the purified anti-CD3 mAbs were assessed in titration studies on purified human primary T cells from different donor samples. Fresh ex vivo peripheral blood mononuclear cells (PBMCs) were obtained via density centrifugation over Ficoll-Paque using standard procedures and untouched T cell fractions obtained from PBMCs by negative pan-T cell selection and magnetic cell sorting. Starting from 300 nM concentrations of the anti-CD3 mAbs, eight point binding curves were generated from the resultant mean fluorescence intensity (MFI) values obtained through detection of labelled secondary antibody to bound CD3 in flow cytometry experiments (FIGS. 3A and 3B). Both commercial mouse anti-human CD3 mAb (OKT-3; Biolegend) and an in house generated IgG1 version of OKT-3 were employed as positive controls together with a non-specific mouse IgG serving as a negative binding control. Following curve fit analysis using one-site specific binding with Hill slope, the KDapp (concentration needed to achieve a half-maximum binding at equilibrium) for each mAb was calculated (Table 2).
Eight point binding titrations were performed with the anti-CD3 mAbs starting at either 300 or 100 nM on freshly purified human T cells obtained through negative selection from PBMC fractions. Briefly, 1×10⁵ human T cells (50 μL of staining buffer (SB; PBS/1% BSA/0.01% NaN3) were incubated with graded dilutions of the anti-CD3 mAbs in SB ([…]) for 2 hours at 4° C. in 96 w U-bottom plates, followed by plate washing with SB ([…]). Cell pellets were resuspended with 25 μL of a 0.25 mg/mL solution of the goat (Fab′)₂ anti-mouse IgG (H+L)− APC secondary antibody in SB, incubated at 4° C. (30 min.), washed 1× with SB, and resuspended for flow analysis. Recombinant anti-human OKT-3 IgG2b (in house produced) and non-specific mIgG were employed similarly as positive and negative controls respectively. 10K live events were acquired on a BD LSRFortessa flow analyzer and mean fluorescence intensities (MFI) calculated after subtraction of secondary antibody alone values. Using GraphPad Prism software, the data were analyzed using a one site specific binding with Hill slope non-linear regression model to calculate KDapp and BMax values (See Table 2).

B1 and B2 are within 1.5-fold of each other in Kd: 0.47 nM for the first, 0.41 nM for the second.

B3 and B4 are within 1.5-fold of each other in Kd: 0.94 nM for the first, 1 nM for the second.

B5 and B6 are within 1.5-fold of each other in Kd: 0.46 nM for the first, 0.53 nM for the second.

B7 and B8 are within 1.5-fold of each other in Kd: 0.37 nM for the first, 0.4 nM for the second.

Target: T1, human CD3
Assay: apparent KD (KDapp), flow cytometry titration on Jurkat cells
Protocol: Unless otherwise stated, all media are kept are 4° C. and all incubations are performed on wet ice. Exponentially growing Jurkat cells were centrifuged and resuspended in complete medium at a cell density of 2×10⁶ cells/mL. Fifty μL/well of cells were distributed in a polypropylene v-bottom 96 well plate and serial 1/3 dilutions of purified mAbs starting at 300 nM were added and incubated for 2 hours. Cells were washed twice by centrifugation and further incubated with a FITC labeled F(ab′)2 goat anti-mouse antibody (Fc specific, #115-096-071, Jackson Immunoresearch, Cedarlane, Burlington, ON) for an hour. Cells were washed and re-suspended in medium containing Propidium iodide to exclude dead cells from analysis. Samples were filtered through a 60 μm nylon mesh filter plate (Millipore, Ireland) to remove cell aggregates. Flow cytometry analyses were performed on 2,000 viable single-cells events gated on forward scattering, side scattering parameters and propidium iodide dye exclusion using a BD-LSRFortessa flow cytometer (Becton-Dickinson Biosciences, CA, USA) and a standard filter set using BD FACSDiva™ acquisition software, according to manufacturer's instructions.

Compared with B1, B2 is 2-fold higher in Kd: 0.3 nM for the first, 0.6 nM for the second.

B3 and B4 are the same in Kd: 0.5 nM for the first, 0.5 nM for the second.

Compared with B5, B6 is 1.6-fold lower in Kd: 0.8 nM for the first, 0.5 nM for the second.

B7 and B8 are within 1.5-fold of each other in Kd: 0.4 nM for the first, 0.3 nM for the second.

Target: T1, human CD3
Assay: flow competition on Jurkat, 100 nM unlabeled mAb; competitor AF488-OKT-3 mIgG2b 1.5 nM
Protocol: as §1, §2

Compared with B1, B2 is higher in “% residual fluorescence of labeled mAb” value: 78% for the first, 79% for the second.

First: B3
Second: B4
The “% residual fluorescence of labeled mAb” value of the first is higher: 89% for the first, 79% for the second.

Compared with B5, B6 is lower in “% residual fluorescence of labeled mAb” value: 89% for the first, 78% for the second.

Going from B7 to B8, the “% residual fluorescence of labeled mAb” value falls from 90% to 77%.
